pKd: −log10 of the molar value.
Key:
[1] = molecular target: Bovine pancreatic β-trypsin (bovine)
[2] = molecular target: Bovine pancreatic β-trypsin (bovine); test: ITC; CVTI (200 µM) injected in 2.02 µL steps into 170 µL cell with bovine trypsin (20 µM); 50 mM Tris pH 7.8, 150 mM NaCl; Nano ITC

Vmax of caseinolysis by trypsin (5 µM) in the presence of CVTI (15 µM); 20.23 µM/min without CVTI [1]: 16.7 µM/min
Ka [2]: 513000 M⁻¹
pKd [2]: 5.71
dH [2]: 76.8 kcal/mol
stoichiometry N [2]: 1.1
Substance: Cleome viscosa trypsin inhibitor (natural protein)

— PMC12732657
